The record followed here is PMC7618045, “Outer membrane utilisomes mediate oligosaccharide uptake in gut Bacteroidetes” (Nature, 2023).

In data set [1] the target is SusC^dex (B. thetaiotaomicron). In words: cryo-EM structure; dextran utilisome (Bt3087-Bt3090), 0.05 mg/ml in 10 mM HEPES, 100 mM NaCl, pH 7.5, 0.03% DDM; heptamers, hexamers and pentamers; 3.1 Å consensus; AlphaFold2 models of SusD^dex, GH^dex and SGBP^dex docked into the map.
Data set [2] concerns the molecule itself. In words: cryo-EM structure; apo (substrate-free) levan utilisome, 3 mg/ml in 10 mM HEPES pH 7.5, 100 mM NaCl, 0.03% DDM; ~6 Å classes, 3.5 Å focused C2 refinement without SusD.

The term stoichiometry N denotes the number of molecules, sites or subunits per partner or assembly.

In the case of SusC^dex (natural protein), in data set [1], the stoichiometry N was 2.

B1: SusC^lev (natural protein, B. thetaiotaomicron, UniProt Q8A6W3 26-1041, looked up)
chain: GQNITVKGNVTSKTDGQPIIGASVVETTATTNGTITDFDGNFTLSVPVNSTLKITYIGYKPVTVKAAAIVNVLLEEDTQMVDEVVVTGYTTQRKADLTGAVSVVKVDEIQKQGENNPVKALQGRVPGMNITADGNPSGSATVRIRGIGTLNNNDPLYIIDGVPTKAGMHELNGNDIESIQVLKDAASASIYGSRAANGVIIITTKQGKKGQIKINFDASVSASMYQSKMNVLNTEQYGRAMWQAYVNDGENPNGNALGYAYNWGYNADGNPVLYGMTLSKYLDSKNTMPVADTDWFDEITRTGVIQQYNLSVSNGSEKGSSFFSLGYYKNLGVIKDTDFDRFSARMNSDYKLIDDILTIGQHFTLNRTSEVQAPGGIIETALDIPSAIPVYASDGSWGGPVGGWPDRRNPRAVLEYNKDNRYTYWRMFGDAYVNLTPFKGFNLRSTFGLDYANKQARYFTYPYQEGTQTNNGKSAVEAKQEHWTKWMWNAIATYQLEVGKHRGDVMIGMELNREDDSHFSGYKEDFSILTPDYMWPDAGSGTAQAYGAGEGYSLVSFFGKMNYSYADRYLLSLTLRRDGSSRFGKNHRYATFPSVSLGWRITQENFMKELTWLDDLKLRASWGQTGNQEISNLARYTIYAPNYGTTDSFGGQSYGTAYDITGSNGGGVLPSGFKRNQIGNDNIKWETTTQTNVGIDFSLFKQSLYGSLEYYYKKATDILTEMAGVGVLGEGGSRWINSGAMKNQGFEFNLGYRNKTAFGLTYDLNGNISTYRNEILELPETVAANGKFGGNGVKSVVGHTYGAQVGYIADGIFKSQDEVDNHATQEGAAVGRIRYRDIDHNGVIDERDQNWIYDPTPSFSYGLNIYLEYKNFDLTMFWQGVQGVDIISDVKKKSDFWSASNVGFLNKGTRLLNAWSPTNPNSDIPALTRSDTNNEQRVSTYFVENGSFLKLRNIQLGYTVPAVISKKMRMDRLRFYCSAQNLLTIKSKNFTGEDPENPNFSYPIPVNITFGLNIGF
notes: SusC^lev, the TonB-dependent outer membrane transporter (SusC) of the levan PUL of B. thetaiotaomicron; Two copies stand in the utilisome (SusC2D2 core); written here without a tag; also called levan SusC; source: endogenous, B. thetaiotaomicron grown on fructose; co-purified from detergent-solubilised membranes (LDAO sample; DDM sample: Ni2+ column, SEC)
B1: the “stoichiometry N” value in data set [2] worked out at 2.
